Laboratory results: the DeepSol protein solubility set

Assay: soluble on expression in E. coli; label from the status in PepcDB or PDB records

Row | Sequence | soluble on expression in E. coli
1 | MGKTSRDKRDIYYRLAKENKWRARSAFKLMQIDDEFQILKGVRRAVDLCAAPGSWSQVLSKRLYEEDQEAKIVAIDLQPMAPIPGVIQLQGDITSVDTANQVIKHFSGEKSDIVICDGAPDVTGIHSLDEFMQAELILAAFNITSHVLKEGGNFLAKIFRSRNSSLLYAQMKKYFKKVYLAKPRSSRQSSCEAFVLCLDYSPPEGFVPTMGKTSLDATDASAISPDIIDGFVTCGDLSGWDSEKSYPLDIDACFPKGEIDEEQKKRYEFKDVVQPPTDPAYKAALDKKKSGVFAKMSADLNRQLKAELSRGKDQKKTPAENVPSVEELEKAAEKFQL | not soluble
2 | MVEELFYKKILKNLFSDPVQITLWNGETIQYGEGEPQFHVTFHKPLSKKEIAKDPSIAFGEAYMNGDLEIEGNLEKAIQSIYKRQDSFLGDSKLQYFKSKWNFSKQKNKDDIAHHYDIGNDFYKLWLDETMTYSCAYFQNEQDSLTTAQHNKVNHILKKLNLQKGDTLLDIGCGWGELITAAAKQYGVKAMGVTLSEEQYAKASERIKQEGLTDLVEVSLLDYRDIKNQKFDKIVSVGMIEHVGKDNITQYFETVNTLLNDGGISLLHCITSPANGGATNGWIEKYIFPGGYVPAVNELITNMTNEQFFIVDVESLRRHYGKTLQHWARNFENVMEEVRKTKDERFIRMWRLYLNACAASFFTGNIDLHQFVFTKGINDTIPMTRSYMYE | not soluble
3 | MGSDKIHHHHHHMKIDVEAFRVLSILVEEGSFSKAAERLHKAQSAVSYQVKKLEQHLGVKLFCRDQYRAELTPEGKVILAEGKRLLQYLGNIEHLASRFSEGWEPKLELVVDGSLPMEPIMRALKRVSEHKIPTKIQLNMEFLGGVQHRFERDNADLMLVKDYRTGPNYRPQPLPDINSILVVSRSHPLAKAKELSLFELLQHVELTIEDSSPGKIHSDELQFGGDKVFYLSGFIMKKNALLMGLGFGWMPDFLIQEELASGELQELDFLGGSRYSFTPQLVSTMERPLGRAGRLFTSLILEEFNLYQAQASR | not soluble
4 | MPGNHSEISLNEQNRVDDNDTKTKTTTRKKKKKKDVTIVDDDDNQFDTTNQLVKSKNRFLGKFRKKPKSPKRWSGSRKGGCFRVMRPRRREGGDDDSSVSSPVSDPNDERFSHEMLRVMLETNDFCSDECNPHR | soluble
5 | GPGSMRSAVTCIKSPGAALFTDTATCRTITLSRPDALNVMSLPMVQDLHRLYITEPHPNEDAVYVVRGDGRRSFCAGGDLKALTGPERDTHNPLFYRLEYEVDSHIAVMRRTQVAMWAGHVLGSGVGVSVHSRYRVACETTRFAMPETQIGGANDVATSWVFSSLPICGLGMYLAITGNALQGADVFHAGLATHYIPVEKFGAVEAALAALPSSEGVEECLRGFSEDVAVPPFTLAESAPVLAKAFGTITPWTRLRDIMDVLRADGSAFAASTLEVMERNSPLGMTLALENMKRQHTPGCNTVMESFRGDYTAIQTSIFADELAKGVEALFVTKEKRPQWTVESVDEVDVELVKQQFALTEGVRVSAGGKDGRACFGVFGCYRAQASPVG | soluble
6 | QRHQKNQNQQRIQALLEESQRRLKQMINKTHVGLLLINEQGQLFDLNPMAKRLFCLPENVNRQTFAWELFDAGNPNSTTLTLLRDLPKHKELAEISAVETMARRSDGSVFPVLFSLTTFPWHGELYFLATLIDISKRKKAEQSLQLINQELAQRVEERTQALRQAQEQLIESSKMAALGRMSSAITHELNQPLTGLRTLLTTNELLAERGETAMMKANNVLVQKLIDRMASMTSQLKTFAYNKPEKLQALSLTSALEETLRVYQSQLANVDVRVRIPSDLPQIQGEEQRLQQVLGNLISNALDAMQSRDNPQLSIVVTPTNSHVEVVVSDNGCGVALEQLDTIFEPFQTSKKIGEGLGLGLSITANNMRDMNGQVTAKRNPGSGMSFLLRFQLANTID | not soluble
7 | MVLSQTHHHHHRHEGNDRSLISILTDPIVNLFRSIPIEILDQNEELSPSQKDFLDDFLELQNDSDLEESEDFIQESQEVVSSVDDEIKVILNEIINQVETETQLIPKIIIHSDDAEVPEESIEIAVQSFGCPLDSFSGLSDSGVDLTVDDVPDDEDDEITVQTFESTPKELPTVTKFTNCTFIRSQSSARCKAILPDTTYICTLPPVSATFSAPVVTPKKIVKRKKSTSAAAKMAAEVLQNEPHCFIAPSSSIDRPFKLLVQKETFLIDAESMSRISPIFNVMCFGKDFEKMDLSREIVDEKSNDIDCFLRAVHDTSMINSSNFALVLRLSNKYQVDPVIDACQNFIIRQHLDVLRADEILTMLIAAFEHHCKREVVQKLIKRLASEGNSVFTKLKISRYLPAQVYGSVISTSMNLNQAKEHELMNGHVLKMERSKIRWRQSVCEECKSVAECANCEECKKTVCRNHVSKLKCSSDYGAKLAADLKKKIVDFEWQD | not soluble
